Experimental findings from PMC9913075 are described below.

The target of the test is Taspase1, endogenous in HeLa cells (human (endogenous in HeLa)) (UniProt Q9H6P5). Nature of the test: proximity ligation; Duolink PLA on fixed HeLa cells with rabbit anti-Topoisomerase IIα/β and mouse anti-Taspase1; foci per nucleus counted.
UniProt Q9H6P5, sequence (Q9H6P5 whole entry): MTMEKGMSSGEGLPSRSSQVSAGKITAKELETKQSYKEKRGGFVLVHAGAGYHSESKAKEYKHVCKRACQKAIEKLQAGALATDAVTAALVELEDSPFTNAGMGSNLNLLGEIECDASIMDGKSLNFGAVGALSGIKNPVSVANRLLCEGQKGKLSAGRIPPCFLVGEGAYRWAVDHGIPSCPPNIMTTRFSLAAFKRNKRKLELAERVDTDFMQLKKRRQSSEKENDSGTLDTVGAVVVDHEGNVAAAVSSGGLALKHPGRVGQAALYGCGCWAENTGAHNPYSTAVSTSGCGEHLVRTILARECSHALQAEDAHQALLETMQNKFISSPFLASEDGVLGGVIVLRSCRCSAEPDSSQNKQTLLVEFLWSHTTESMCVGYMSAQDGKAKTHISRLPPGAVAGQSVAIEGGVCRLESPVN

Take “Topo IIα/β (endogenous, HeLa cells, detected with an antibody that recognises both isoforms)”: the PLA foci per nucleus (median) (foci per nucleus) is 45.
